# Like-named read-outs stand apart in the source and are kept apart here.
# Tests used:
# [1] = biological target: mAID-EGFP-NLS (arabidopsis)
# [2] = biological target: RAD21-mAID-Clover (human; arabidopsis) (UniProt O60216)
# [3] = biological target: mAID-EGFP-NLS (arabidopsis); remark: listed apart in the source
# [4] = biological target: mAID-EGFP-NLS (arabidopsis); remark: listed apart in the source
# Sequence of RAD21-mAID-Clover (human; arabidopsis) (O60216 other isoform, or with tags, fused parts or gaps): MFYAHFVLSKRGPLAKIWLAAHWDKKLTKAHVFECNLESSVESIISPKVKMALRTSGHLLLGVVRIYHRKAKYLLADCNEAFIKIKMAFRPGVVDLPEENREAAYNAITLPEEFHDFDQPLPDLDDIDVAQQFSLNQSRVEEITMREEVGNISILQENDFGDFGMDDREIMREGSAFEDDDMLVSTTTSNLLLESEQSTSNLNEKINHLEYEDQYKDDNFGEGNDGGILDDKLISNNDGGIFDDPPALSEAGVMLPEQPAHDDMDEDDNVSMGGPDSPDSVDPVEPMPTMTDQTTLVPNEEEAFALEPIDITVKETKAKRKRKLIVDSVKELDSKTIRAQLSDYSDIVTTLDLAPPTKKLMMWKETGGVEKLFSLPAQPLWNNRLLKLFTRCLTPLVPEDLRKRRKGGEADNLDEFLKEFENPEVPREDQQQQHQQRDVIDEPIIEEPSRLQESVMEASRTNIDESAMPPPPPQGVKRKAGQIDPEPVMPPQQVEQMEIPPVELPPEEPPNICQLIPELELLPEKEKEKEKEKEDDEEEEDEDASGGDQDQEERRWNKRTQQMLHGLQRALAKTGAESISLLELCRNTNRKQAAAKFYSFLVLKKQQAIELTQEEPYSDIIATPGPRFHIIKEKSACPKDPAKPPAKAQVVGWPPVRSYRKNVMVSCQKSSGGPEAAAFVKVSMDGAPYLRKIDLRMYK
# Sequence of OsTIR1(WT) (receptor) (chain): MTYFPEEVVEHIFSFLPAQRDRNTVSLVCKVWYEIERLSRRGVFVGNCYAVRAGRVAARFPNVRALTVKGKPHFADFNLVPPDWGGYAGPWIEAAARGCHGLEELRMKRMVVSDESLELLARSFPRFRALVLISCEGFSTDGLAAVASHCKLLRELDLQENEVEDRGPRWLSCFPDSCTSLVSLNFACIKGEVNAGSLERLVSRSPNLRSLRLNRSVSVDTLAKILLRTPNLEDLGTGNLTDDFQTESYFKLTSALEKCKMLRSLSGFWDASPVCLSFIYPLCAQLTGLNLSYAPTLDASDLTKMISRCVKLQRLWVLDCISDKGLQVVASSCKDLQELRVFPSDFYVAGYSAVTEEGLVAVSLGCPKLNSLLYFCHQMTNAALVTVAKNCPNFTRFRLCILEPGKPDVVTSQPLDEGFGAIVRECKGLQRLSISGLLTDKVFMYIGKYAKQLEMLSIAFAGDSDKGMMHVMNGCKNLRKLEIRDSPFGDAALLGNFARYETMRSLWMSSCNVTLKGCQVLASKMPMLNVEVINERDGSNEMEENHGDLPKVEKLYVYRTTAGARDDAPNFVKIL
# Sequence of OsTIR1(WT) (chain): as above
DC 50 (concentration of 5-Ph-IAA for 50% degradation of the reporter) [1] [nM],T1/2 of RAD21-mAC after the addition of a ligand [2] [min],half-life of the reporter after ligand addition (time course) [3] [min],DC 50 (concentration of IAA (auxin) for 50% degradation of the reporter) [1] [nM],half-life of the reporter after ligand addition (time course) [4] [min],Substance
0.45,11.7,62.3,–,–,OsTIR1(F74G) (receptor)
–,26.5,–,–,–,OsTIR1(WT)
–,–,–,300,147,OsTIR1(WT) (receptor)
